From patent WO2019076277A1 (dated 2019)
Each block holds one binder with its values, some of them ahead of it.

How the values were obtained:
[1] = molecular target: T1, human LAG-3 full-length protein overexpressed on CHO-S cells (human, UniProt P18627 23-525); assay: cell ELISA on CHO-S cells overexpressing human LAG-3 (Test Example 2)
T1 construct: whole, on cells; also called full-length LAG-3; CHO-S cells overexpressing the human LAG-3 full-length protein
T1 sequence (looked up): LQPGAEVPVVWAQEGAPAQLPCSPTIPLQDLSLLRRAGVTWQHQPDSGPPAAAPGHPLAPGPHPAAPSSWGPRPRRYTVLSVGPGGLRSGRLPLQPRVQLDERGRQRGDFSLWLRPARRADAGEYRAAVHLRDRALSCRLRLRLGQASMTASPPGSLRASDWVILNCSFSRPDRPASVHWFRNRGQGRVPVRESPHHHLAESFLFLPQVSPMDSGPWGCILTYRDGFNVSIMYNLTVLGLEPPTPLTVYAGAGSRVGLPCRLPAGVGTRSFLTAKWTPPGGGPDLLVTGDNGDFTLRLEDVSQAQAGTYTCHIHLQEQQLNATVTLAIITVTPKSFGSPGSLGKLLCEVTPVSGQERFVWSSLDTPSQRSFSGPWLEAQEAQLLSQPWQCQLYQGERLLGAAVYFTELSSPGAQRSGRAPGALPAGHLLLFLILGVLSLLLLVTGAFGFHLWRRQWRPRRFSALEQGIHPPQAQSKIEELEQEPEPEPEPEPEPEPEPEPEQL

[2] = molecular target: T2, human LAG-3 protein (human, UniProt P18627 23-450, limits assumed); assay: binding ELISA on human LAG-3 protein (Test Example 1)
T2 construct: also called human LAG-3 antigen; LAG-3 antigen
T2 sequence (looked up): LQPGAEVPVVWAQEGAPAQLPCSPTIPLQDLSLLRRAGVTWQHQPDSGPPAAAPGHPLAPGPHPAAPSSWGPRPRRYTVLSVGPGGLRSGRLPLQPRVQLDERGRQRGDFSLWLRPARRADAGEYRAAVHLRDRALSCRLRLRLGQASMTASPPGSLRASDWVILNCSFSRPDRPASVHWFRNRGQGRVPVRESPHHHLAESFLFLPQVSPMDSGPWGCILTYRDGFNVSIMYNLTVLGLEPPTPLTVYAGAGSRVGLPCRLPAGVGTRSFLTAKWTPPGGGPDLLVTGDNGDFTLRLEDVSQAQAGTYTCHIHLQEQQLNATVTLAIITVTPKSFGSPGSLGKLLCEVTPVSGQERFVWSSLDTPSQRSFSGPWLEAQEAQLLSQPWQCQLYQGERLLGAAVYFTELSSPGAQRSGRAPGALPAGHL

binding result [1]: binds
binding result [2]: binds
B1: mAb229 (antibody, V domains shown)
VH: QIQLVQSGPELKKPGETVKISCKASGYTFTTSGMSWVKQAPGKGLKWMGWINTYSGVPTYADDFKGRFAFSLETSASTAYLQINNLKNEDTATYFCARDNYDARDVYYYAMDYWGQGTSVTVSS
VL: DIQMTQSPASLSVSVGETVTITCRASENIYSNLAWYQQKQGKSPQLLVYAATNLADGVPSRFSGSGSGTQYSLKINSLQSEDFGSYYCQHFWITPWTFGGGTKLEIK
notes: also called LAG-3 antibody mAb229; hybridoma clone mAb229

binding result [1]: binds
binding result [2]: binds
B2: mAb303 (antibody, V domains shown)
VH: EVQLQQSGPVLVKPGASVKMSCKASGYTLTDYYMNWVKQSHGKSLEWIGVINPYNGDTAYNQKFKGKATLTVDKSSNTAYMEINSLTSEDSAVYYCTRDDGYYDYYFDVWGTGTTVTVSS
VL: DIQMTQSPSSLSASLGERVILTCRASQDIGSRLNWLQQGPDGTFKRLIYATSTLDSGVPKRFSGSRSGSDFSLTISSLESEDFVDYYCLQLASSPPTFGGGTKLEIK
notes: also called LAG-3 antibody mAb303; hybridoma clone mAb303
